The results in this text go back to the DeepSol protein solubility set.

The data set can be described thus: soluble on expression in E. coli; label from the status in PepcDB or PDB records.
Turning to “MPLSWPPEQFAFALEQMPLTENNRRILQAFLDAPEQTLTAHSLAAAANVAGGWSAANLRIGELSRKFAPVLGSLPDAGDGDPHWWRYIASGRWDGGRFYWTLRPQLKDALLTLGWQSSESLDNEAEGVSAEEARTFVEGATRQIFVNAYERNAGARAACIAHFGTVCRVCETDLVAIYGEVARGYIQVHHLRSLAEVGRQYEVNPLTDLIPVCPNCHAMLHQRRPAYTPEELRAMLGRGQHLEHHHHHH”, the “soluble on expression in E. coli” value is “not soluble”.

Take “MQSTVAFISHRSTHKDFVRKIVDTVKRDNCIVDEFDFYPATKTVNEIVRNLNFAPIFVLLISKDALESDWIKLEMSKARQLYDTGVIREFMPFIIEEGVKLEELPSWMTRDWSLNIKTITSPKIIGQFIIETQRKIRCVGNNAYGNWINTFIGRSNELDEFQRAMYDSVYMPHRSLIVSGKPGSGRTRFIQKCIQDSSGLSFIPEGFQIKLPQKTYLDNFILQLHEGLGFSKASYEDILKLDHEHQITKCVSYINQIINAHSFLLIEDEMSFVSYDGTISEWGKEIISHPAMIDSLKIFISSRVKPRYSELRAYPQIIHINLSGFTKDERKRLFVNCCRYYNVQLNDSDVDFFVDRLQSSPQQLEQAVREIKDKNVRFAKKDIKNLIAIGDEVFSRVISWFKGDETALTLAKVLAEVDMISFDLLEQLYEEDYPKIEQLVNNFESLSILDFYGPGGNNISLDGGVSDYIRRSKLDLDPIMKTRIEEIIFNKIDTAEDDLGELSIFLHDLRKQLLSGKGFAYVMPSIVISTVIDLYNQGSYDSVKDICLHALEHCSSYTEEPLQELYYRLCQVLARMKDRIFFTYIDKIKDKGSKDFLYGFYYRYKEDYSKAEEYLLKALDFNSNMQIARRELVNVYLNQEKYTKALPLAKENYNRKSTNSYHIEAYFRCLLNHYPWNTETEDTLNRLLKEMEENFSKRKDELLASMQLEYFIKSRNHTKEEIKEKIQETLIVYPNSPQVYRIKEEFERDKSRFCKSCNC”: the “soluble on expression in E. coli” value is on record as “not soluble”.

With “MGSDKIHHHHHHVTSDLDFHLFCPKGALSDLVQGIWSVSRPAEADELHAWLHSDAASGLLINLGAPLGYDEQEVPAGVYLLPVNKQTTRVTLPPGALAVGVRFLPGAGRAWMMERFAFEQGREAITPLTYHAELMALAASLRACRGHRQRLSLTYRWLRANQTLNQPLPRVINEVLQALDRPDADMTAFENGVMSQRQIERYFRRYLEMTPKYYQRLMRARQTLQALKLSPLAPLADIALELGFADQAHMTRELKQLIKITPKRYRQLLTQGAG”, the “soluble on expression in E. coli” value is “not soluble”.

For the sequence “MKRHYLFSICILTLLLLAACGSSATEDHELEVPEDQETIEIDGEEEDSSQPVFSDEEALVVDDLLEEESRGEEATEHSEPIEEDTSTPSEASGSENVEETEQQPADENNQAFALNVKKFKLELEWQDGDELEMEYEQKKNEKGKAKVEWDGAHKEKMSGKQAVEWMEDFLSQLDLSEGTNSDRLKSQVYAILDIDPSEVEELDLEIEFFDMAGDPLEHHHHHH”, the “soluble on expression in E. coli” value was “not soluble”.

On to “MRLFTPEAMREADRKAVERGYPSLLLMEWAGMKAARVYLELFGKAPALVLAGKGNNGGDGLVLARHLLLEGVGVRVYAAGGQTGDALLALQALLAHGVEVRPLEEASFREGEVVVDALFGTGLKGPLTDFYAELVERVNRAGLPVLALDLPSGLPFSPHVRATATVAFAALKTPHLFQREACGKLYLAEIGLPKPLLEREDLPEVASPEALRPLLPRRPLTAHKGSVGRVGVLGGYQGEDLRYAGAPLLAALGAYRMGAGLVHLVAPEGTPLEPLEAVFHPVPSPALPPLKAEALAVGMGGGPWGRAWALKALEARLPTVLDADALHPEVAEAYRKAGVPAVLTPHAGEAGRLLGISPEEVAKDPLGAARALAERTGLAVVLKGNPTVVAEGERLSVNPTGNPALATGGTGDVLSGAIAALLAAGLRPFDAARLGVFLHGLAGDLLAEEKGVGLLAREVAEALPRARRLLQEGRVPPAFFPR”, for which the “soluble on expression in E. coli” value is “soluble”.

For the sequence “MAHHHHHHMPARGCAPVDEQIAGTDTEGRRYRSVEEMWGRELQGNLYDAKTGWYGKSLQYWGSVPATVSGVLGGMDHVHDIDIRDSRAFICCLPERGTTRALDCGAGIGRITKSLLCHLYDVTDLLEPVASMLEKAKEELEGFPVGDFFQSSMETAKLQPKTYDLIVIQWAAIYLTDEDFVAFLVRCKEALTPKGYIFFKENCASDDEFIVDKEDSSLTRSDKHYKRIFAAAGIEVVKEAMQGDWPDDLLKVKMYALR”, the “soluble on expression in E. coli” value was “soluble”.

Turning to “MGSDKIHHHHHHMNNQVKRRKTKAVNVGKVQVGGGAPVAVQSMTCTDTRNVRETIEQIEALEKAGCEIVRVAVPDAEAASVLGKIKKSISIPLIADIHFNHHYALMAIEQDVDGIRINPGNVGKKNIAEIVRAAKDHNTVIRIGVNAGSLEKELQEKHGGPTAHALTESALNNLAFVEDMGFDRIKLSLKSSHVPTMIDAYRLVADKTDYPLHLGVTEAGTLVTSAVKSSIGMGLLLHEGIGDTIRVSVTGSPVLEIGIAYDILRALDIRRVGPDIISCPTCGRCEIDLFGLVEQVEHSLSGMKDYMKIALMGCVVNGPGEAAEADVGIAGGRGMGLLFKKGQVIRKIREEEFVKALLQEIQEMTGE”, the “soluble on expression in E. coli” value was “not soluble”.

As to “MDRPLLIFSGQSNRPLAQAIAEALGLPLGKSTTLRFANDNLFVRYEESLREGDVFIVQSFVPPVQDHLMELLMMVDAAKGASAARVTAVIPYFSYARSDKKDAPRISITARLIADLLQTAGADRVLTMTLHSPQVHGFFKIPVDHLSAEPVIANYFATRVDLENAVVVAPDAGDLKRASALARRLGLPLAFIDKERVSDTEVRVRMLVGEVEGKTALIVDDEISTAGSLVEAVEALMQAGAKEVYAAATHGVYVGPALDRIAKSPVKEVAATDTCPPKEGPKLRTLTVAPLFAEAIWRIHRGESVSSLFT”, the “soluble on expression in E. coli” value was “soluble”.

On to “MRGSHHHHHHTDPALRASVRLVLAKGREKSLLRRHPWVFSGAVARMEGKASLGETIDIVDHQGKWLARGAYSPASQIRARVWTFDPSESIDIAFFSRRLQQAQKWRDWLAQKDGLDSYRLIAGESDGLPGITIDRFGNFLVLQLLSAGAEYQRAALISALQTLYPECSIYDRSDVAVRKKEGMELTQGPVTGELPPALLPIEEHGMKLLVDIQHGHKTGYYLDQRDSRLATRRYVENKRVLNCFSYTGGFAVSALMGGCSQVVSVDTSQEALDIARQNVELNKLDLSKAEFVRDDVFKLLRTYRDRGEKFDVIVMDPPKFVENKSQLMGACRGYKDINMLAIQLLNEGGILLTFSCSGLMTSDLFQKIIADAAIDAGRDVQFIEQFRQAADHPVIATYPEGLYLKGFACRVMGLCGR”, for which the “soluble on expression in E. coli” value is recorded as “soluble”.

Regarding “MKQVLVIKNERSSAKKIVSGLTQEGYFILKLHNENEGLNIIYEQDWDIIILDWDSLSISGPEICRQIRLVKTTPIIIVTDNISSKDCVAGLQAGADDYIRKPFAKEELVARVQAILRRSDCNQQKEINFFQFKDLFVDASSNIVKKGGKNLSLTKREYDLLVFLIKNKNTILSREMLLNQVWGYNIVVNPNVVDLYIGYVRKKLKCEKKERYIQTIHGRGYSMIE”, the “soluble on expression in E. coli” value is recorded as “not soluble”.

In the case of “MAHHHHHHMSLRLCVCTATANGEYYMSMFNKHLSSFFKTITLGSTVDDFKQDKDSKDSIILYVEGPVGHDAIKYLCDDYHLPKEQRRVLWIYSLTAGVDVYRLGELVKELQDIPFANARGCYSSVLAEHVMYSMLYFYRQTWRSLASRAEHKWDPFLMVELRGKKVGIIGYGDIGQASAKLLSAFGMEVTGVKRSASTKEVDEYGVRLVHGDAERERVLRESDFVVNILPGTEETKRFFNKELFSMMKPSAVYISIGRGITQNEDDLACALRDGVIRGASVDVFEREPLPAESPLWDISDDKLLLTAHSADRTANLVPDSVRRFIGLVNEYAKTKRLDTYLVDPVRGY”, the “soluble on expression in E. coli” value is recorded as “not soluble”.

In the case of “MKNASVITVGNEILKGRTVNTNAAFIGNFLTYHGYQVRRGFVVMDDLDEIGWAFRVALEVSDLVVSSGGLGPTFDDMTVEGFAKCIGQDLRIDEDALAMIKKKYGQADLTPQRLKMAKIPPSCRPIENPVGTAPGLICAVGGKKVIILPGVPKEMEALLKAMEKDIIIPDTHYYDDSVIIADVMESAFAPYVDRIMKEFDGIYVKSHPRNVEVKNPELEIEISGFGEDEAALRKKIEDAIARAGEYAVKLGGSVKR”, the “soluble on expression in E. coli” value was “not soluble”.

For the sequence “FEEHLKKKPLRERLLEIPELRTEGLRDCQVMAISNLEKSFKDYRPRALIQMATGSGKTYTAITFIYRLLKFADARKVLFLVDTKNLGEQAEQEFMAYVPNDDNRKFTELYNVQRLRSSYISSDSQVCISTIQRLYSILKGEDLDEKTEEENPAERGWQLKEPLPVVYNEKVPIEEFDFIVIDECHRSIY”, the “soluble on expression in E. coli” value is “not soluble”.

In the case of “MGSDKIHHHHHHMDMQQLKPSREHDAPLYLQLYRRYRDAIIARKLHPGDRVPSVRSLASELNLARGTVEMAYQMLASEGYFLTRGPAGTIVSPQLEKLTESGYSTTSLSQIPSRPQIETAQVQPFQLGLPALDAFPRKTWARLAGHNLRTLDTAAMISPDPAGYEPLRRAIATYLGISRGITCTHEQVFITAGYRGALELVCRTLLQPGDIGWFEDPGYIFARQFLARAGMHLEPVPVDEEGLNVDIGQQRAAEARFAVVTPTHQSPMGMALSLPRRLQLLEWASHHRSWIIEDDYDSEFRYHGRPLPALKSLDRDGRVLYTGTFSKVLFPGLRLAYLVVPEPQIERFRDTANHFCCAGSILPQATVANFMEQGHFARHLRRMRSLYAIRRGYLVDELLQALGSHLTVQPQAGGIHVLATLTARGNDQSLAAAAQSHGLAIQALNDWRTSKTSRGGLLMGFTNVTEPAMAKALVHRLAAAIGLS”, the “soluble on expression in E. coli” value is “not soluble”.

Turning to “HYIFPHARIKITRDSKDHTVSGNGLGIRIVGGKEIPGHSGEIGAYIAKILPGGSAEQTGKLMEGMQVLEWNGIPLTSKTYEEVQSIISQQSGEAEICVRLDLNM”, the “soluble on expression in E. coli” value is reported as “soluble”.

Take “MGSDKIHHHHHHEIRENLLGNYSDRVLVVSHRADWRNAPENSLQGIRNCIDMGVDMVEIDLKKTKDGHLVIMHDKTINRTMTGKGNAEDYTLAELKAMRLKNGAGCKTRHQIPTLEEVMLLCKGKIMVNIDKGYDYFQEAYAVLEKTGTIDHCVIKAGLPYERVKAENGDVLDKVIFMPIVNLHKEGAEKIINDYQSHMKPTAYELVFNDDNEEILRLIRKVRDSGAKLFINSLWPELCGGHDDDRAVELHQPDESWGWILNQGAKLIQTDRPALLLEYLRKKKLHD”: the “soluble on expression in E. coli” value was “not soluble”.

With “MYELNICHLYPDLLNLYGDRGNIMALKMRCVWRGINVNVSNISIGDKFDAEAYDIIFLGGGQDYEQEIIQDDLLNQKGEEIRNAVKNDKVFLAICGGYQLLGSYYKTWDGKEIHFLNALDLWTIGGKERMIGNFVFECDFLKNDHYDGKIVGFENHSGRTYLGPGVKPLGKIIKGYGNNGEDGFEGAIYKNVYCSYSHGSLLPKNPALADHLISVALKQKYKDFVSLSGIDDEFENLAHDTTIKRIMG”, the “soluble on expression in E. coli” value is listed as “soluble”.

On to “QKRAWITAPVALREGEDLSKKNPIAKIHSDLAEERGLKITYKYTGKGITEPPFGIFVFNKDTGELNVTSILDREETPFFLLTGYALDARGNNVEKPLELRIKVLDINDNEPVFTQD”, for which the “soluble on expression in E. coli” value is listed as “soluble”.

Turning to “MCSSPTTLFLLFALVSTSYALLGVGRTQSVAVSGRVICNGQPASGVKLKLYEKESTFDVLLEEATSDANGQFRLSGSKTEISTIDPKLNIYHKCNYNGLCYKKIGITIPDNYVSSGKTPSKTYDIGTLNLANQYTGQTTDCIN”, the “soluble on expression in E. coli” value is listed as “not soluble”.

With “MGSDKIHHHHHHMGLYDLLDAEGKDDQKGKSPGVAVGVVADNQDPEGMGRVKVRFPWKDDADESTWARVVTPMAGKGRGLWFLPEVGDEVLVAFDHGDVQHPYVLGSLWNGTDTPPGDNGDGNNNIRKITSRSGHELVFDDTSGAEKVVIRTKAGHAITLDDAGGGEKIEIKDKSGSNKLVIDSAQNSIGIESSMKLTIKGQMVEIQSDANMTLKAGAVMTIQGSMVKIN”, the “soluble on expression in E. coli” value is recorded as “not soluble”.
